B1: D-Ser-D-Ser-D-Ser-D-Ser-D-Ser-L-Norleucine-D-Tyr-D-Ser-cyclo[L-Cys-L-Phe-D-Trp-L-Lys-L-Thr-L-Cys]-L-Thr-NH2 (peptide)
peptide: [dS][dS][dS][dS][dS][Nle][dY][dS]CF[dW]KTCT-NH2
modifications: disulfide 9-14; N-terminus assumed
SMILES: CCCC[C@H](NC(=O)[C@@H](CO)NC(=O)[C@@H](CO)NC(=O)[C@@H](CO)NC(=O)[C@@H](CO)NC(=O)[C@H](N)CO)C(=O)N[C@H](Cc1ccc(O)cc1)C(=O)N[C@H](CO)C(=O)N[C@H]1CSSC[C@@H](C(=O)N[C@H](C(N)=O)[C@@H](C)O)NC(=O)[C@H]([C@@H](C)O)NC(=O)[C@H](CCCCN)NC(=O)[C@@H](Cc2c[nH]c3ccccc23)NC(=O)[C@H](Cc2ccccc2)NC1=O
B2: D-Ser-D-Ser-D-Ser-D-Ser-D-Ser-L-Gln-D-Tyr-D-Ser-cyclo[L-Cys-L-Phe-D-Trp-L-Lys-L-Thr-L-Cys]-L-Thr-NH2 (peptide)
peptide: [dS][dS][dS][dS][dS]Q[dY][dS]CF[dW]KTCT-NH2
modifications: disulfide 9-14; N-terminus assumed
SMILES: C[C@@H](O)[C@H](NC(=O)[C@@H]1CSSC[C@H](NC(=O)[C@@H](CO)NC(=O)[C@@H](Cc2ccc(O)cc2)NC(=O)[C@H](CCC(N)=O)NC(=O)[C@@H](CO)NC(=O)[C@@H](CO)NC(=O)[C@@H](CO)NC(=O)[C@@H](CO)NC(=O)[C@H](N)CO)C(=O)N[C@@H](Cc2ccccc2)C(=O)N[C@H](Cc2c[nH]c3ccccc23)C(=O)N[C@@H](CCCCN)C(=O)N[C@@H]([C@@H](C)O)C(=O)N1)C(N)=O
B3: D-Ser-D-Ser-D-Ser-D-Ser-D-Ser-L-4Pal-D-Tyr-D-Ser-cyclo[L-Cys-L-Phe-D-Trp-L-Lys-L-Thr-L-Cys]-L-Thr-NH2 (peptide)
peptide: [dS][dS][dS][dS][dS][4Pal][dY][dS]CF[dW]KTCT-NH2
modifications: disulfide 9-14; N-terminus assumed
SMILES: C[C@@H](O)[C@H](NC(=O)[C@@H]1CSSC[C@H](NC(=O)[C@@H](CO)NC(=O)[C@@H](Cc2ccc(O)cc2)NC(=O)[C@H](Cc2ccncc2)NC(=O)[C@@H](CO)NC(=O)[C@@H](CO)NC(=O)[C@@H](CO)NC(=O)[C@@H](CO)NC(=O)[C@H](N)CO)C(=O)N[C@@H](Cc2ccccc2)C(=O)N[C@H](Cc2c[nH]c3ccccc23)C(=O)N[C@@H](CCCCN)C(=O)N[C@@H]([C@@H](C)O)C(=O)N1)C(N)=O
B4: D-Ser-D-Ser-D-Ser-D-Ser-D-Ser-L-Thr-D-Tyr-D-Ser-cyclo[L-Cys-L-Phe-D-Trp-L-Lys-L-Thr-L-Cys]-L-Thr-NH2 (peptide)
peptide: [dS][dS][dS][dS][dS]T[dY][dS]CF[dW]KTCT-NH2
modifications: disulfide 9-14; N-terminus assumed
SMILES: C[C@@H](O)[C@H](NC(=O)[C@@H]1CSSC[C@H](NC(=O)[C@@H](CO)NC(=O)[C@@H](Cc2ccc(O)cc2)NC(=O)[C@@H](NC(=O)[C@@H](CO)NC(=O)[C@@H](CO)NC(=O)[C@@H](CO)NC(=O)[C@@H](CO)NC(=O)[C@H](N)CO)[C@@H](C)O)C(=O)N[C@@H](Cc2ccccc2)C(=O)N[C@H](Cc2c[nH]c3ccccc23)C(=O)N[C@@H](CCCCN)C(=O)N[C@@H]([C@@H](C)O)C(=O)N1)C(N)=O
B5: D-Ser-D-Ser-D-Ser-D-Gln-D-Ser-D-Ser-D-Ser-D-Gln-D-Ser-D-Ser-D-Ser-D-Gln-L-Norvaline-D-Tyr-D-Ser-cyclo[L-Cys-L-Phe-D-Trp-L-Lys-L-Thr-L-Cys]-L-Thr-NH2 (peptide)
peptide: [dS][dS][dS][dQ][dS][dS][dS][dQ][dS][dS][dS][dQ][Nva][dY][dS]CF[dW]KTCT-NH2
modifications: disulfide 16-21; N-terminus assumed
SMILES: CCC[C@H](NC(=O)[C@@H](CCC(N)=O)NC(=O)[C@@H](CO)NC(=O)[C@@H](CO)NC(=O)[C@@H](CO)NC(=O)[C@@H](CCC(N)=O)NC(=O)[C@@H](CO)NC(=O)[C@@H](CO)NC(=O)[C@@H](CO)NC(=O)[C@@H](CCC(N)=O)NC(=O)[C@@H](CO)NC(=O)[C@@H](CO)NC(=O)[C@H](N)CO)C(=O)N[C@H](Cc1ccc(O)cc1)C(=O)N[C@H](CO)C(=O)N[C@H]1CSSC[C@@H](C(=O)N[C@H](C(N)=O)[C@@H](C)O)NC(=O)[C@H]([C@@H](C)O)NC(=O)[C@H](CCCCN)NC(=O)[C@@H](Cc2c[nH]c3ccccc23)NC(=O)[C@H](Cc2ccccc2)NC1=O
B6: D-Ser-D-Ser-D-Ser-D-Ser-D-Ser-L-Lys-D-Tyr-D-Tyr-cyclo[L-Cys-L-Phe-D-Trp-L-Lys-L-Thr-L-Cys]-L-Thr-NH2 (peptide)
peptide: [dS][dS][dS][dS][dS]K[dY][dY]CF[dW]KTCT-NH2
modifications: disulfide 9-14; N-terminus assumed
SMILES: C[C@@H](O)[C@H](NC(=O)[C@@H]1CSSC[C@H](NC(=O)[C@@H](Cc2ccc(O)cc2)NC(=O)[C@@H](Cc2ccc(O)cc2)NC(=O)[C@H](CCCCN)NC(=O)[C@@H](CO)NC(=O)[C@@H](CO)NC(=O)[C@@H](CO)NC(=O)[C@@H](CO)NC(=O)[C@H](N)CO)C(=O)N[C@@H](Cc2ccccc2)C(=O)N[C@H](Cc2c[nH]c3ccccc23)C(=O)N[C@@H](CCCCN)C(=O)N[C@@H]([C@@H](C)O)C(=O)N1)C(N)=O
B7: D-Ser-D-Ser-D-Ser-D-Ser-D-Ser-L-Asp-D-Tyr-D-Ser-cyclo[L-Cys-L-Phe-D-Trp-L-Lys-L-Thr-L-Cys]-L-Thr-NH2 (peptide)
peptide: [dS][dS][dS][dS][dS]D[dY][dS]CF[dW]KTCT-NH2
modifications: disulfide 9-14; N-terminus assumed
SMILES: C[C@@H](O)[C@H](NC(=O)[C@@H]1CSSC[C@H](NC(=O)[C@@H](CO)NC(=O)[C@@H](Cc2ccc(O)cc2)NC(=O)[C@H](CC(=O)O)NC(=O)[C@@H](CO)NC(=O)[C@@H](CO)NC(=O)[C@@H](CO)NC(=O)[C@@H](CO)NC(=O)[C@H](N)CO)C(=O)N[C@@H](Cc2ccccc2)C(=O)N[C@H](Cc2c[nH]c3ccccc23)C(=O)N[C@@H](CCCCN)C(=O)N[C@@H]([C@@H](C)O)C(=O)N1)C(N)=O
B8: D-Ser-D-Ser-D-Ser-D-Ser-D-Ser-L-Lys-D-Tyr-D-Ser-cyclo[L-Cys-L-Phe-D-Trp-L-Lys-L-Thr-L-Cys]-L-Thr-NH2 (peptide)
peptide: [dS][dS][dS][dS][dS]K[dY][dS]CF[dW]KTCT-NH2
modifications: disulfide 9-14; not fully specified; printed as D-Ser-D-Ser-D-Ser-D-Ser-D-Ser-L-Lys-D-Tyr-D-Ser-cyclo[L-Cys-L-Phe-D-Trp-L-Lys-L-Thr-L-Cys]-L-Thr-NH2
B9: Succinate-D-Asp-D-Ser-D-Ser-D-Ser-D-Ser-D-Ser-L-Thr-D-Tyr-D-Ser-cyclo[L-Cys-L-Phe-D-Trp-L-Lys-L-Thr-L-Cys]-L-Thr-NH2 (peptide)
peptide: Suc-[dD][dS][dS][dS][dS][dS]T[dY][dS]CF[dW]KTCT-NH2
modifications: disulfide 10-15
SMILES: C[C@@H](O)[C@H](NC(=O)[C@@H]1CSSC[C@H](NC(=O)[C@@H](CO)NC(=O)[C@@H](Cc2ccc(O)cc2)NC(=O)[C@@H](NC(=O)[C@@H](CO)NC(=O)[C@@H](CO)NC(=O)[C@@H](CO)NC(=O)[C@@H](CO)NC(=O)[C@@H](CO)NC(=O)[C@@H](CC(=O)O)NC(=O)CCC(=O)O)[C@@H](C)O)C(=O)N[C@@H](Cc2ccccc2)C(=O)N[C@H](Cc2c[nH]c3ccccc23)C(=O)N[C@@H](CCCCN)C(=O)N[C@@H]([C@@H](C)O)C(=O)N1)C(N)=O
B10: D-Ser-D-Ser-D-Ser-D-Ser-D-Ser-L-hSer-D-Tyr-D-Ser-cyclo[L-Cys-L-Phe-D-Trp-L-Lys-L-Thr-L-Cys]-L-Thr-NH2 (peptide)
peptide: [dS][dS][dS][dS][dS][hSer][dY][dS]CF[dW]KTCT-NH2
modifications: disulfide 9-14; N-terminus assumed
SMILES: C[C@@H](O)[C@H](NC(=O)[C@@H]1CSSC[C@H](NC(=O)[C@@H](CO)NC(=O)[C@@H](Cc2ccc(O)cc2)NC(=O)[C@H](CCO)NC(=O)[C@@H](CO)NC(=O)[C@@H](CO)NC(=O)[C@@H](CO)NC(=O)[C@@H](CO)NC(=O)[C@H](N)CO)C(=O)N[C@@H](Cc2ccccc2)C(=O)N[C@H](Cc2c[nH]c3ccccc23)C(=O)N[C@@H](CCCCN)C(=O)N[C@@H]([C@@H](C)O)C(=O)N1)C(N)=O
B11: D-Gln-D-Gln-D-Gln-D-Gln-D-Gln-D-Gln-D-Gln-D-Gln-D-Gln-D-Gln-L-Lys-D-Tyr-D-Tyr-cyclo[L-Cys-L-Phe-D-Trp-L-Lys-L-Thr-L-Cys]-L-Thr-NH2 (peptide)
peptide: [dQ][dQ][dQ][dQ][dQ][dQ][dQ][dQ][dQ][dQ]K[dY][dY]CF[dW]KTCT-NH2
modifications: disulfide 14-19; N-terminus assumed
SMILES: C[C@@H](O)[C@H](NC(=O)[C@@H]1CSSC[C@H](NC(=O)[C@@H](Cc2ccc(O)cc2)NC(=O)[C@@H](Cc2ccc(O)cc2)NC(=O)[C@H](CCCCN)NC(=O)[C@@H](CCC(N)=O)NC(=O)[C@@H](CCC(N)=O)NC(=O)[C@@H](CCC(N)=O)NC(=O)[C@@H](CCC(N)=O)NC(=O)[C@@H](CCC(N)=O)NC(=O)[C@@H](CCC(N)=O)NC(=O)[C@@H](CCC(N)=O)NC(=O)[C@@H](CCC(N)=O)NC(=O)[C@@H](CCC(N)=O)NC(=O)[C@H](N)CCC(N)=O)C(=O)N[C@@H](Cc2ccccc2)C(=O)N[C@H](Cc2c[nH]c3ccccc23)C(=O)N[C@@H](CCCCN)C(=O)N[C@@H]([C@@H](C)O)C(=O)N1)C(N)=O

Consider 18 molecules from US20050070470A1 (ADMINISTRATORS OF THE TULANE EDUCATIONAL FUND, published 2005).

*1 amine or outer side, *2 acyl side, *3 side chain or, on linkers, in order; H or OH if unused. Bridges are numbered along the chain shown (N, C = ends). Where no end group is shown, it is not given here. [ ]: non-standard residue; d: D form. MTXCOO‑CH2CO = methotrexate-acetyl; 4Pal = N[C@@H](Cc1ccncc1)C(=O)O; Suc = O=C(CCC(=O)[*:2])[*:1]; hSer = N[C@@H](CCO)C(=O)O; Nle = CCCC[C@H](N)C(=O)O; Nva = CCC[C@H](N)C(=O)O; Abu = CC[C@H](N)C(=O)O

somatostatin subtype 2 rat receptor, sequence (P30680 whole entry): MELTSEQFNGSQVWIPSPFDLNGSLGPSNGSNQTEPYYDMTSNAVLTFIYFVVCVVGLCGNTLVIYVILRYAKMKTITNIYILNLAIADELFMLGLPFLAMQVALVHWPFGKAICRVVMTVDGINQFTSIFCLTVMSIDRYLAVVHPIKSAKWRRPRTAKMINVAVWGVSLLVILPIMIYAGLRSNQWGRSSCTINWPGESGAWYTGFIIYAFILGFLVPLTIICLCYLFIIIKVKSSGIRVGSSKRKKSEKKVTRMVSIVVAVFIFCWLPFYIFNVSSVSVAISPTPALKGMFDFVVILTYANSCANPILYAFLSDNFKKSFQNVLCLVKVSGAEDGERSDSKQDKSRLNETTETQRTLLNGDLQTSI

This assay has as its target somatostatin subtype 2 rat receptor (rat, UniProt P30680 1-369). Nature of the assay: cell-based or functional assay.
Consider B1, for which the “IC50 (nM), inhibition of GH release from primary cultures of rat pituitary cells” value (“IC50 (nM), inhibition of GH release” below) amounted to 0.094 nM.

B2: the “IC50 (nM), inhibition of GH release” value worked out at 0.45 nM.

For the molecule mercaptoacetate-GG[dD][dS][dS][dS][dS][dS][4Pal][dY][dS]CF[dW]KTCT-NH2 (disulfide 12-17), the “IC50 (nM), inhibition of GH release” value was 0.97 nM.

As to B3, the “IC50 (nM), inhibition of GH release” value was 0.18 nM.

{MTXCOO‑CH2CO}-[dK][dY]K[dY][dK]CF[dW]KTCT-NH2 (cysteine pairing not given here) [MTXCOO-CH2CO-D-Lys-D-Tyr-Lys-D-Tyr-D-Lys-Cys-Phe-D-Trp-Lys-Thr-Cys-Thr-NH2]: the “IC50 (nM), inhibition of GH release” value worked out at 0.62 nM.

Take {MTXCOO‑CH2CO}-[dS][dS][dS][dS][dS]K[dY][dY]CF[dW]KTCT-NH2 (cysteine pairing not given here) [MTXCOO-CH2CO-(D-Ser)5-Lys-D-Tyr-D-Tyr-Cys-Phe-D-Trp-Lys-Thr-Cys-Thr-NH2]: the “IC50 (nM), inhibition of GH release” value was found to be 0.16 nM.

On to succinate-[dS][dS][dS][dS][dS][Abu][dY][dS]CF[dW]KTCT-NH2 (disulfide 9-14), for which the “IC50 (nM), inhibition of GH release” value came to 0.61 nM.

B4: the “IC50 (nM), inhibition of GH release” value worked out at 0.72 nM.

With B5, the “IC50 (nM), inhibition of GH release” value is 0.93 nM.

B6: the “IC50 (nM), inhibition of GH release” value was determined as 0.14 nM.

Succinate-[dS][dS][dS][dS][dS]S[dY][dS]CF[dW]KTCT-NH2 (disulfide 9-14): the “IC50 (nM), inhibition of GH release” value turned out to be 5.6 nM.

B7: the “IC50 (nM), inhibition of GH release” value was 7.55 nM.

Turning to B8, the “IC50 (nM), inhibition of GH release” value came out at 0.086 nM.

{3‑N,N‑dimethylaminobenzoyl}-[dS][dS][dS][dS][dS][dS][dS][dS][dS][dS][dS][dS][dS][dS][dS]K[dY][dY]CF[dW]KTCT-NH2 (disulfide 19-24): the “IC50 (nM), inhibition of GH release” value is 0.27 nM.

As to B9, the “IC50 (nM), inhibition of GH release” value turned out to be 5.17 nM.

Consider succinate-[dD][dS][dS][dS][dS][dS][Nle][dY][dS]CF[dW]KTCT-NH2 (disulfide 10-15), for which the “IC50 (nM), inhibition of GH release” value worked out at 0.52 nM.

With B10, the “IC50 (nM), inhibition of GH release” value was 0.55 nM.

Consider B11, for which the “IC50 (nM), inhibition of GH release” value is 0.24 nM.
